# In the nanobody polyreactivity screen of Harvey et al. (2022):
# Experiment: yeast display, Sf9 membrane polyspecificity reagent, FACS + sequencing; frameworks hold sequencing errors
# Method in brief: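 A nanobody's polyreactivity label depends on the gate it was sorted from. Yeast display cells were stained with 10% biotinylated, detergent-solubilized Sf9 membrane reagent for 1 hour at 4 °C, enriched on streptavidin microbeads and sorted by FACS. The low and high (top ~1%) gates were set on anti-HA fluorescence for expression and streptavidin fluorescence for reagent binding.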
row,Sequence,polyreactivity (PSR sort gate)
1,QVQLVESGLGLVQAGGSLRISCAASGLTIYYYAMGWYRQAPGKERELVAAITWRGGSTYYADSVKGRFTISRDNAKNTVYLQMNSLKPEDTAVYYCNKAYKYIRQQPYRTKRYDYWGQGTQGTVSS,low polyreactivity
2,QVQLVESGLGLVQAGVSLRLSCAATGLTFVYYAMGWYRPAHGKERELVAAIDWSGGTTYYADSVKGRFTISRDHAKNTVYLQMNSLKPEDTAVYYCAADVVEEDDLEFYYWGQGTQVTVSS,high polyreactivity
3,QVQLVESGRGIVQAGGSLRLSCAASGRIFYLNAMGWYRQAPGKERELVAAITRSAASTHYADSVKGRFTISRDNAKNTVYVQMNSLKPEDTAVYYCAARFWYDYRHYDYWGQGTQVTVSS,low polyreactivity
4,QVQLVESGRGIVQAGGSLRLSCAASGRTFYVYTMGWYRQAPGKERELVAAITSGGSTNYADSVKGRFTISRDNAKNTLYLQMNSLKPEDTAVYYCAARVSTVFKRYYYWGQGTQVTVSS,high polyreactivity
5,QVQLVESGRGLDQAGGSLRISSAASGNTYKGHAMGWYRHAPGKERELVAAISWSTDSTYYADSVKGRFTISRDNAKNTVYLQMNSLKPEDTAIYYCAAYYSHLTIAWYYYWGQGTQVNVSS,low polyreactivity
6,QVQLVESGRGLFQAGGSLRLSCAASGIIFKSYAMGWYRQAPGKEREFVAAISWSGGRTTYADSLKGRFTISRDNAKNTVYLPMNSLKPEDTAVYYCAAAARGKFYYWGQGTQVTVSS,high polyreactivity
7,QVQLVESGRGLFQEGGSLRLSCAPSGFIFGKYAMGWYRQAPGTEREFVAAITRNGGSTYYADSVKGRVTISRDNAKNTVYLQMNSLKPDDTAVYYCNADRGYRRRTGMDDWGQVTQVTVSS,low polyreactivity
8,QVQLVESGRGLLQAGGSLRISCAASGFTFKGNAMGWYRQAPGKESELVAAITTSGGSTYYADSVKWRFTISRDNAKNTVYLQMNSLKPEDTAVYYCNAYFIYEGGWYYNAQYDYWGQGTQVTVSS,low polyreactivity
9,QVQLVESGRGLLQAGGSLRLSCASSGCIFTSYAMGWYRPAPGKVRELVAGITRGGRTYYADSVKGRFTISRDKAKNTVYLQSNSLKPEDTAVYYCAALSSRHFVFTVDYWGQATQVTVSS,high polyreactivity
10,QVQLVESGRGLVEAGGSLRLSCAASGSTFWAYVMGWSRQAPGKERELVAAITSSGGSTYYADSVKGRFTISRDYAKNTVYLQMNILKPEDTAVYYCAADYFYPYYGAMDYWGQGTQVTVSS,low polyreactivity
11,QVQLVESGRGLVQAGCSLRLSCASSGFIFVFNAMGRYRQAPGKERELVAAINGGDITNYAYSVKGRFTISRDNAKNTVYIQMNSLKPEDTAVYYCAADGEDSLWSGYDYDYWGLGTQVTVSS,low polyreactivity
12,QVQLVESGRGLVQAGCSLRLTCAASGSIFPQYAMGWYRQAPGQERELVAAITRSGGGTHYADSVKGRFTISRDNAKNTVYLQMNSLKPEDTAVYYCAKAGYRSEFEYWGQGTQVTVSS,low polyreactivity
13,QVQLVESGRGLVQAGGSLRLICDASGSTFFLYGMGWYRPAPGKERELVAAITWNGGSTYYADSVKGRFTISRDNAKNTVYLQMNSLKPEDTAVYYCAADYYGYFSTPYDYWGQGTQVTVSS,low polyreactivity
14,QVQLVESGRGLVQAGGSLRLSCAASGFTFGYYAMGWYRQAPGKERELVAAITSSGGTTYYADSVKGRFTISRDNAKNTVYLQMNSLKPEDTAVYYCAAEAQYYVVDPYGYDYWGQGTQVTVSS,low polyreactivity
15,QVQLVESGRGLVQAGGSLRLSCAASGIIFEYYTMGWSRPAPGKERELVASITYDGDSTYYADSVKGRFTISRDNAKNTVYLQMNSLKPEDTAVYYCAAEYYYVYSSFGHFYWGQGTQVTVSS,low polyreactivity
16,QVQLVESGRGLVQAGGSLRLSCAASGITFGWYAMGWYRQPPGKATELVASISSSGSTNYADSVKGRFTNSRDNAKNTVYLQMNSLKPEDTAVYYCNKDYLLRHYYIYVIEGDYWGQGTQVTVSS,low polyreactivity

row,Sequence,polyreactivity (PSR sort gate)
1,QVQLVESGRGLVQAGGSLRLSCAASGRIFDRNAMGWYRDAPGKERELVAAIDDSVGDTSYADSVKGRFTISRDNAKNTVYLQMNSLKPEDTSVFYCNAGYADFVTYPRYYYWGQGTQVTVSS,low polyreactivity
2,QVQLVESGRGLVQAGGSLRLSCAASGRIFFRYAMGWYRQAPGKAMELVAALPKSGGSTYADSVKGRFTISRDNAKTTVSLQMNSLKPEDTAVDDCATETTHYRDSGYIVKYRSEYWGQGTQVTVSS,low polyreactivity
3,QVQLVESGRGLVQAGGSLRLSCAASGRIFKAYAMGWYRQAPGKERELVAAISRSGGRTFYADSVKGRFTISRDNAKNTVYLQMNSLKPEDTAVYYCAVDVSPDSEYYYWGQGTQVTVSS,high polyreactivity
4,QVQLVESGRGLVQAGGSLRLSCAASGRIFKGYAMGWYRQAPGKERELVAAITTSGGGTYSADSVKGRFTFSRDNAKNTVYLQMNSLKPEDPAVYYCAKTLGSQNYDFDYWGQGTQVTVSS,low polyreactivity
5,QVQLVESGRGLVQAGGSLRLSCAASGRIFTTDVMGWDRQAPGKERELFAAISARGSTYYADYVKWRFTISRDNAKNTVYLHMNSLKPEDTAVYYFAKKGWSSHERAWYIYDYWGQGTQVTVSS,low polyreactivity
6,QVQLVESGRGLVQAGGSLRLSCAASGRTFDGYAMGWYRQAPGKERELVAAIDYDGVSTYYADSVKGRFTISRDNAKNTVYLPMHSLKPEDTAVYFCAVDATDDWWLDYWGQGTQVSVSS,low polyreactivity
7,QVQLVESGRGLVQAGGSLRLSCAASGRTLRIYAMGWYRQAPGKERELVAAITSSGRTNYADSVKGRFTISRDNAKNTVYLQMNSLKPEDTAVYYCAAVTPAVNYFRAASGYYYWGQGTQVTVSS,low polyreactivity
8,QVQLVESGRGLVQAGGSLRLSCAASGSIFDKYAMGWDRQAPGKEREMVAAISYSGGRTYYADSVKGRFTISRDNAKNTVYLQMNCLNPEDTAVYYCNAVGSVITDFGYWGQGTQVTVSS,low polyreactivity
9,QVQLVESGRGLVQAGGSLRLSCAASGSIFIANPMGWYRQAPGKQREFVADITLNGGSTYYADSVKGRFTISRDNAKNTVYLEMNRLNPEDTAVYYCAADWVWVAPQYWIVEYDYWGQGTQVTVSS,low polyreactivity
10,QVQLVESGRGLVQAGGSLRLSCAASGSIFRYNAMGWYRQAPGKERELVAAITRRGTSTYYADSVKGRFTISRDNAKNTVYLQKNSLKPEDTAVYYCAARYLYGVPVGGHGYWGQGTQVSVSS,high polyreactivity
11,QVQLVESGRGLVQAGGSLRLSCAASGSIFTPNVMGWYIQAPGKERELVAAISQSGGSTFYADSVKGRFTISRDNAKNTVYLQLNSLKPEDTAVYYCATEYDGPVYDLDYDYWGQGTLVTVSS,low polyreactivity
12,QVQLVESGRGLVQAGGSLRLSCAASGSTFDANAMGWYRQAPGKERELVAAISRSGGNTYYADSVKGRFTISRDNAKNTVYLQMNSLKPEDTAVYYCAADFRNAYYDRLDYWGQGTHVTVSS,low polyreactivity
13,QVQLVESGRGLVQAGGSLRLSCAASGSTFGGYAMGWYRQAPGKERELVAAISGSGVRTYYADSVKGRFTISRDNAKNTVYLQMNSLKPEDTAVYYCAKRVRYPGDRYYYWGQGTQVTLSS,high polyreactivity
14,QVQLVESGRGLVQAGGSLRLSCAASGSTFGRYVMGWYRQAPGKERELVAAISKNAGSTYYADSVKGRFTISRDNAKNTVYLQMNSLKPEDTAVYYCNRERRYRNDYWGQGTQVTVSS,high polyreactivity
15,QVQLVESGRGLVQAGGSLRLSCAASGSTFNRNAMGWYRQAPGKERELVAAITIRGGSTSYADSVKGRFTISRDNAKNTVYLQMNSLKPEDTAVYYCNRQSRNAGGYYWGQGTHVTVSS,low polyreactivity
